The record followed here is article PMC3258144 (Nucleic Acids Research, 2011).

Substitutions are numbered along the chain they refer to. Names and notes keep the numbering of the source.

The series “native gel or EMSA” concerns the molecule itself. The series can be described thus: native gel or EMSA.
Series [1] concerns the molecule itself. The series can be described thus: fluorescence polarisation.

B1: Dnmt3a-C K840E (domain or fragment, mouse, UniProt O88508 608-908, looked up)
chain: NHDQEFDPPKVYPPVPAEKRKPIRVLSLFDGIATGLLVLKDLGIQVDRYIASEVCEDSITVGMVRHQGKIMYVGDVRSVTQKHIQEWGPFDLVIGGSPCNDLSIVNPARKGLYEGTGRLFFEFYRLLHDARPKEGDDRPFFWLFENVVAMGVSDKRDISRFLESNPVMIDAKEVSAAHRARYFWGNLPGMNRPLASTVNDKLELQECLEHGRIAKFSKVRTITTRSNSIKQGEDQHFPVFMNEKEDILWCTEMERVFGFPVHYTDVSNMSRLARQRLLGRSWSVPVIRHLFAPLKEYFACV
Turning to B1, in the series “native gel or EMSA”, the binding result is listed as “binds”.

B2: Dnmt3a-C E850H (domain or fragment, mouse, UniProt O88508 608-908, looked up)
chain: B1 chain with E233K, E243H
With B2, in the series “native gel or EMSA”, the binding result is on record as “binds”.

B3: Dnmt3a-C R827E (domain or fragment, mouse, UniProt O88508 608-908, looked up)
chain: B1 chain with R220E, E233K
Take B3: the binding result (in series [1]; in “native gel or EMSA”) was “binds” throughout.
